Data published in the DeepSol protein solubility set.

Assay: soluble on expression in E. coli; label from the status in PepcDB or PDB records

Row | Sequence | soluble on expression in E. coli
1 | MAHHHHHHMQDDKINSKDDISSSSSCEENDENKNILNPPNRTKMSKGERRARKMLVKLGLKAIPNVHKVIIKKSQKMVFAVSNVEVYKVEGTDSYVIFGDAKTDDITNSINNFIPENLPKDVDVPVEPEINFEAADKEEQKVKDLDDENVGDVSMDDVELIMSQTKCSRDMAISALRKNNNDFVQSIMELSG | soluble
2 | MRFSILGLAFASVLSGCVSTTPTTSALSSTDVTTFYDYQLHSPSGNALALQNLPDELKNADVILVGEWHTHAGIHRFQTDLLRQLSSGERRIALSMEQVTRDKQSVLDAYLKGEIGEQYFMSQSNAWPNYESDYRPLVEFAKQANLPVIAANTPKYIVRCIGRQGVDYLNKLDDEERSFVAENVNTANSPYKEKFMASMHHGKPEQTEKQYAAQVTWDETMAESIVKYLAQNPNAQVVHVAGKFHTEAGLGTAASILQRNPELKVVVVNPTSEISTNSPDYQLEVLEPPVRFVQDANRMAAYKHLSTRNDDLQCKLEHHHHHH | soluble
3 | AIAKPTNKAQDDDAVFALSTEVNHKLDLHQSSAEALRLAGVYTRQSCVLDLYHGYRSDDEDTEPDEEDGRLQTVREYHENGMLKLMRTFVRRLRRDATDPTAESSYYDRVVEEKHYDPSGICRVDMHFALGQPYLYRKHYYPNNRLKSEKVFFVEDEETMRARKVGHWRTYYENGNIQSEIIYNKDGVRCGFCKRYAIDGAIEWVKDYTREQEERLQAFNAKRGNLDLTVTDAARVLGLEGDWCSHVVNRTFRSKCAPLHPDWRRTAGDKAGETWEEEQRTEAFIRLSRAREVLLKFLETHPRECSCERGGA | soluble
4 | MSERQSKYFDYQGIVISSTGQDNQDSETDLVYLIQAHGKAAPKNIMYGVSKCAFVPTNLERNFDNIEEAKNLERRSKIPLKFGEVILWNESDCDHDKRIILHIKREKPIYEASSSRNGLILKVGGVIQPTSTTSFWTPLCTVTMPETEATRAEPDVWLYAWIRFETTMKSGLDPFNMTATFESFDSCDPSDQARVCEAPWNAGSPDSKFGVWRPDPKPADSDDEIDIEPREGWHLPEDKWAEVIKMQLGLYVGERLLICKELSQFDFIIPLQKPFSRGTDKTLIYPAVGEYFHFSAIWSMQHNGFLIYELQPVPLLRQHVTSVNGNLLTRVVPASIRGLFVDKEGTLGLIDDPHHLLSFFEFHPAGYEFLKAMAEVRAVRTSENKSVRYRIVRTSGMSIFENWLRDTQFVVGPVKGIRINEDTVICAKHPNVYFKIPNNLKEGIPIGGGVQFVGKRQAGVDSEIMITECSPCPAFTCKNYSVSGDTRLFQVYLKPNCDHEQLAESDSMGFVDFRELETPCRGKFLAWVRESITVNDCRRAATIMEVCSTAICPPLIAMSANSSRATSARTTPAGSSIGSRSSIQSRASAATSVSSNRFVGPSSRRTPSGTPQSSTSSRV | not soluble
5 | MGSDKIHHHHHHMSFTSLPLTEINHKLPARNIIESQWITLQLTLFAQEQQAKRVSHAIVSSAYRKAEKIIRDAYRYQREQKVEQQQELACLRKNTLEKMEVEWLEQHVKHLQDDENQFRSLVDHAAHHIKNSIEQVLLAWFDQQSVDSVMCHRLARQATAMAEEGALYLRIHPEKEALMRETFGKRFTLIIEPGFSPDQAELSSTRYAVEFSLSRHFNALLKWLRNGEDKRGSDEY | not soluble
6 | MSDSVSDAQAQSTPEGAQQKPILRVVKGNPDPTQVATLTALFASMADNAAQQSKQERERNLWGNVEERLQRPTTYNPTAFRNVSFF | not soluble
7 | MGSDKIHHHHHHMWRNAQVNWDDYRCFLTLAKTGSFSRAARLLHVDHTTVGRRVAALEVDLGIKLVERLAREVRLTAEGHDLATLGLPVEEAMASVERAAAGGGAALAGPVHISAPPGLASLLLAPKLVSLHRQYPEIKITMSSDKDFANLNRREADIALRLSRPLSNGLVARKLRDIPFFFFASHTYDIAEDDWEFITYLQADDILPQQSWLMQHIGSRTIALRCSDAASQVQAAASGLGVALLPDYLGYNDTRLRKCPSRLTPPRRELWMVVHDDIRHAPRVRVVLDFLIGILTATQDLELPHASEA | not soluble
